Among the data in patent publication US10472401B2, “Peptides and combination of peptides for use in immunotherapy against ovarian cancer and other cancers” (immatics biotechnologies GmbH, priority 2015, dated 2019) are Peptide exchange values, retold here.

In the test the target is HLA-A*02:01 (Homo sapiens, UniProt P04439, D140Y/D185E/D98H/E176V/E277Q/G131W/G231S/I119V/I121R/I166T/I218V/L300P/L318F/N151K/N90K/P208A/P217A/Q86G/Q94H/R138H/R169H/T345S). Kind of test: MHC binding assay (UV-ligand exchange, ELISA of stabilized MHC complexes). The conditions noted are these: MHC class I binding score; binding to HLA-A*02:01 ranged by peptide exchange yield (UV-ligand exchange, ELISA). The essentials: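 Binding scored as exchange yield, detected via β2m of stabilized complexes in an HRP/TMB ELISA read at 450 nm after streptavidin capture of 100-fold diluted monomers for 1 h at 37 °C. Complexes came from UV irradiation cleaving a photolabile peptide, exchanged for the candidate.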
In the case of “449 (KLAEGLDIQL; listed as Homo sapiens) [compound 449]”, the Peptide exchange entry was “″+++″ (≥50% = +++)”.
Then “450 (FMIDASVHPTL; listed as Homo sapiens) [compound 450]”, with “″+++″ (≥50% = +++)”.
Next, “451 (LLLLDTVTMQV; listed as Homo sapiens) [compound 451]”: “″++″ (≥20% = ++)”; “452 (ILLEHGADPNL; listed as Homo sapiens) [compound 452]”: “″+++″ (≥50% = +++)”; “453 (KLLEATSAV; listed as Homo sapiens) [compound 453]”: “″++″ (≥20% = ++)”.
Then “454 (KLPPPPPQA; listed as Homo sapiens) [compound 454]”, with “″+++″ (≥50% = +++)”; and “455 (SLLKEPQKVQL; listed as Homo sapiens) [compound 455]”, with “″++″ (≥20% = ++)”.
For the substance “456 (LLIGHLERV; listed as Homo sapiens) [compound 456]”, the Peptide exchange entry is “″+++″ (≥50% = +++)”.
Then “457 (SLLPGNLVEKV; listed as Homo sapiens) [compound 457]”, with “″+++″ (≥50% = +++)”; and “458 (SLIDKLYNI; listed as Homo sapiens) [compound 458]”, with “″++″ (≥20% = ++)”; and “459 (ALITEVVRL; listed as Homo sapiens) [compound 459]”, with “″++″ (≥20% = ++)”.
As for “461 (VMFRTPLASV; listed as Homo sapiens) [compound 461]”, the Peptide exchange result is given as “″++″ (≥20% = ++)”.
Then “462 (KLAKQPETV; listed as Homo sapiens) [compound 462]”, with “″+++″ (≥50% = +++)”; and “463 (SLVESHLSDQLTL; listed as Homo sapiens) [compound 463]”, with “″+++″ (≥50% = +++)”; and “464 (ALNDCIYSV; listed as Homo sapiens) [compound 464]”, with “″+++″ (≥50% = +++)”.
Next, “465 (QLCDLNAEL; listed as Homo sapiens) [compound 465]”: “″+++″ (≥50% = +++)”.
Then “466 (VLIANLEKL; listed as Homo sapiens) [compound 466]”, with “″++++″ (≥75% = ++++)”.
For the substance “467 (FLAKDFNFL; listed as Homo sapiens) [compound 467]”, the Peptide exchange entry is “″+++″ (≥50% = +++)”.
Then “468 (YLRSVGDGETV; listed as Homo sapiens) [compound 468]”, with “″+++″ (≥50% = +++)”.
On to “469 (YLASDEITTV; listed as Homo sapiens) [compound 469]”, for which the Peptide exchange result is “″+++″ (≥50% = +++)”.
On to “471 (YLYNNMIAKI; listed as Homo sapiens) [compound 471]”, for which the Peptide exchange entry was “″+++″ (≥50% = +++)”.
As for “472 (KLLEVSDDPQV; listed as Homo sapiens) [compound 472]”, the Peptide exchange entry is recorded as “″+++″ (≥50% = +++)”.
Then “473 (AMATESILHFA; listed as Homo sapiens) [compound 473]”, with “″+++″ (≥50% = +++)”; and “474 (YLDPALELGPRNV; listed as Homo sapiens) [compound 474]”, with “″+++″ (≥50% = +++)”.
Next, “475 (LLLNEEALAQI; listed as Homo sapiens) [compound 475]”: “″+++″ (≥50% = +++)”; “476 (ALMERTGYSMV; listed as Homo sapiens) [compound 476]”: “″+++″ (≥50% = +++)”; “477 (ALLPASGQIAL; listed as Homo sapiens) [compound 477]”: “″+++″ (≥50% = +++)”.
For the substance “478 (YLLHEKLNL; listed as Homo sapiens) [compound 478]”, the Peptide exchange entry is recorded as “″+++″ (≥50% = +++)”.
Regarding “479 (SLFGNSGILENV; listed as Homo sapiens) [compound 479]”, the Peptide exchange entry was “″+++″ (≥50% = +++)”.
As to “480 (ALLEDSCHYL; listed as Homo sapiens) [compound 480]”, the Peptide exchange entry is “″+++″ (≥50% = +++)”.
Take “481 (GLIEDYEALL; listed as Homo sapiens) [compound 481]”: the Peptide exchange entry is on record as “″+++″ (≥50% = +++)”.
For the substance “484 (SLIEKVTQL; listed as Homo sapiens) [compound 484]”, the Peptide exchange result is reported as “″+++″ (≥50% = +++)”.
With “485 (NVPDSFNEV; listed as Homo sapiens) [compound 485]”, the Peptide exchange result is “″+++″ (≥50% = +++)”.
Then “486 (AVMESIQGV; listed as Homo sapiens) [compound 486]”, with “″+++″ (≥50% = +++)”; and “487 (LLINSVFHV; listed as Homo sapiens) [compound 487]”, with “″+++″ (≥50% = +++)”; and “488 (FLAEDPKVTL; listed as Homo sapiens) [compound 488]”, with “″+++″ (≥50% = +++)”.
Then “490 (FLLQHVQEL; listed as Homo sapiens) [compound 490]”, with “″+++″ (≥50% = +++)”; and “491 (GLNDRSDAV; listed as Homo sapiens) [compound 491]”, with “″++″ (≥20% = ++)”; and “492 (SLFDGFADGLGV; listed as Homo sapiens) [compound 492]”, with “″+++″ (≥50% = +++)”.
In the case of “493 (GLLGEKTQDLIGV; listed as Homo sapiens) [compound 493]”, the Peptide exchange entry is “″+++″ (≥50% = +++)”.
Then “494 (ALQPEPIKV; listed as Homo sapiens) [compound 494]”, with “″++″ (≥20% = ++)”.
Next, “495 (FIFSEKPVFV; listed as Homo sapiens) [compound 495]”: “″+++″ (≥50% = +++)”; “496 (FLVEKQPPQV; listed as Homo sapiens) [compound 496]”: “″+++″ (≥50% = +++)”.
Then “497 (GLLEKLTAI; listed as Homo sapiens) [compound 497]”, with “″+++″ (≥50% = +++)”.
For the substance “498 (KLWTGGLDNTV; listed as Homo sapiens) [compound 498]”, the Peptide exchange result is recorded as “″+++″ (≥50% = +++)”.
As for “500 (SLMEDQVLQL; listed as Homo sapiens) [compound 500]”, the Peptide exchange result is given as “″+++″ (≥50% = +++)”.
Then “501 (LLDPNVKSIFV; listed as Homo sapiens) [compound 501]”, with “″+++″ (≥50% = +++)”; and “502 (RLLAQVPGL; listed as Homo sapiens) [compound 502]”, with “″+++″ (≥50% = +++)”; and “503 (SLNHFTHSV; listed as Homo sapiens) [compound 503]”, with “″+++″ (≥50% = +++)”.
With “504 (GLSDGNPSL; listed as Homo sapiens) [compound 504]”, the Peptide exchange result was “″++″ (≥20% = ++)”.
Next, “505 (SLAPGDVVRQV; listed as Homo sapiens) [compound 505]”: “″++″ (≥20% = ++)”; “506 (KLLGKVETA; listed as Homo sapiens) [compound 506]”: “″+++″ (≥50% = +++)”.
Next, “507 (KLIDDQDISISL; listed as Homo sapiens) [compound 507]”: “″+++″ (≥50% = +++)”; “508 (ILAQEQLVVGV; listed as Homo sapiens) [compound 508]”: “″+++″ (≥50% = +++)”; “509 (FLFDTKPLIV; listed as Homo sapiens) [compound 509]”: “″+++″ (≥50% = +++)”.
Turning to “510 (KLYSVVSQL; listed as Homo sapiens) [compound 510]”, the Peptide exchange entry is on record as “″++″ (≥20% = ++)”.
On to “512 (SLSEIVPCL; listed as Homo sapiens) [compound 512]”, for which the Peptide exchange result is “″+++″ (≥50% = +++)”.
Then “513 (SLWPSPEQL; listed as Homo sapiens) [compound 513]”, with “″++″ (≥20% = ++)”; and “514 (ILVDWLVQV; listed as Homo sapiens) [compound 514]”, with “″+++″ (≥50% = +++)”; and “515 (LLQELVLFL; listed as Homo sapiens) [compound 515]”, with “″+++″ (≥50% = +++)”.
As to “516 (AVGPASILKEV; listed as Homo sapiens) [compound 516]”, the Peptide exchange result is reported as “″++″ (≥20% = ++)”.
Then “517 (LLMPIPEGLTL; listed as Homo sapiens) [compound 517]”, with “″+++″ (≥50% = +++)”; and “518 (KLNAEVACV; listed as Homo sapiens) [compound 518]”, with “″+++″ (≥50% = +++)”.
Then “519 (GLLHLTLLL; listed as Homo sapiens) [compound 519]”, with “″+++″ (≥50% = +++)”.
Turning to “520 (LAVHPSGVAL; listed as Homo sapiens) [compound 520]”, the Peptide exchange result is on record as “″+″ (≥10% = +)”.
Regarding “521 (MLLTKLPTI; listed as Homo sapiens) [compound 521]”, the Peptide exchange result is reported as “″+++″ (≥50% = +++)”.
Next, “522 (TLWYRSPEV; listed as Homo sapiens) [compound 522]”: “″++″ (≥20% = ++)”; “523 (YQIPRTFTL; listed as Homo sapiens) [compound 523]”: “″++″ (≥20% = ++)”; “524 (ALIENLTHQI; listed as Homo sapiens) [compound 524]”: “″++″ (≥20% = ++)”.
Next, “525 (VLLEAGEGLVTI; listed as Homo sapiens) [compound 525]”: “″+++″ (≥50% = +++)”.
